Read-outs that look alike come from different tables or passages of the source.

Experiment [1] concerns the target HLA-A*1101 (human).
Experiment [2] addresses HLA-A*1101 (human). The source holds these as a separate data set.
For experiment [3], the target named is HLA-DR2w2β1 (DRB1*1501) (human). The experiment is described as follows: HLA class II peptide binding assay, ratio to standard peptide.
The target of experiment [4] is HLA-DR5w11 (DRB1*1101) (human). The description is as above. The following applies: remark: other sources report otherwise.
For experiment [5], the target named is HLA-DR6w19 (DRB1*1302) (human). The description is as above. The following applies: remark: other sources report otherwise.
The target of experiment [6] is HLA-DR4w15 (DRB1*0405) (human). The description is as above. Particulars: remark: other sources report otherwise.
Experiment [7] deals with HLA-DR7 (DRB1*0701) (human). The description is as above. The following applies: remark: other sources report otherwise.
Experiment [8] deals with HLA-DR3 (DRB1*0301) (human). The description is as above. The following applies: remark: other sources report otherwise.
The target of experiment [9] is HLA-DR1 (DRB1*0101) (human). The experiment is described as above. The following applies: remark: other sources report otherwise.
Experiment [10] concerns the target HLA-A*0201 (human). The experiment is described as follows: competitive inhibition of radiolabeled standard peptide binding to purified HLA.
Experiment [11] addresses HLA-A*0201 (human).
Experiment [12] concerns the target HLA-DR5w11 (DRB1*1101) (human). Description: competition with standard peptide for purified HLA-DR, relative to standard.
Experiment [13] concerns the target HLA-DRw53 (DRB4*0101) (human). The experiment is described as above.
Experiment [14] addresses HLA-DR1 (DRB1*0101) (human). Described as above.
In experiment [15] the target is HLA-DR4w4 (DRB1*0401) (human). Description: HLA class II peptide binding assay, ratio to standard peptide. The following applies: remark: other sources report otherwise.
The target in experiment [16] is HLA-DR7 (DRB1*0701) (human). The experiment is described as follows: competition with standard peptide for purified HLA-DR, relative to standard.
Experiment [17] concerns the target HLA-DR4w4 (DRB1*0401) (human). Described as above.
Experiment [18] has as its target HLA-DR5w11 (DRB1*1101) (human).
The target of experiment [19] is HLA-DR7 (DRB1*0701) (human).
The target in experiment [20] is HLA-DR1 (DRB1*0101) (human).
A further experiment has as its target HLA-B*0702 (human). The experiment is described as follows: competition with radiolabeled standard peptide for purified HLA, gel filtration. On the technique in general: Size exclusion chromatography separates by hydrodynamic size, large species first.
The target of experiment [21] is HLA-B*0701 (as printed in the head of Table XXII) (human). Description: competitive inhibition of radiolabeled standard peptide binding to purified HLA.
Experiment [22] has as its target HLA-DR6w19 (DRB1*1302) (human).
In experiment [23] the target is HLA-DR2w2β2 (DRB5*0101) (human).
In experiment [24] the target is HLA-DR2w2β1 (DRB1*1501) (human).
A further experiment addresses HLA-B*5101 (human). The experiment is described as follows: competition with radiolabeled standard peptide for purified HLA, gel filtration. The following applies: remark: other sources report otherwise.
Another experiment addresses HLA-B*5401 (human). Described as above. Particulars: remark: other sources report otherwise.
Where [25] appears, read: remark: other sources report otherwise.

Consider LLDTASALYR (modifications not checked) [HBV NUC 30 peptide …], for which the binding affinity ratio (IC50 of standard peptide / IC50 of test peptide) in the experiment with HLA-A*0301 (human) is 0.005.

Take VLGGCRHK (modifications not checked) [HBV X 133 peptide VLGGCRHK]: the binding affinity ratio (IC50 of standard peptide / IC50 of test peptide) was -0.0009 with HLA-A*3301 (human) and -0.0005 in the experiment with HLA-A*3101 (human).

Consider KAGILYKR (modifications not checked) [HBV POL 153 peptide KAGILYKR], for which, in the experiment with HLA-A*1101 (human) [1], the binding affinity ratio (IC50 of standard peptide / IC50 of test peptide) is -0.0002.

Take ILRGTSFVY (modifications not checked) [HBV POL 771 peptide …]: the binding affinity ratio (IC50 of standard peptide / IC50 of test peptide) with HLA-A*0301 (human) (setting [25]) turned out to be 0.044.

For the molecule TTVVRRRGR (modifications not checked) [HBV NUC 175 peptide …], the binding affinity ratio (IC50 of standard peptide / IC50 of test peptide) with HLA-A*3301 (human) was determined as 0.14; with HLA-A*3101 (human) it was 0.25; in the experiment with HLA-A*1101 (human) [2], 0.0005; with HLA-A*6801 (human) it was 0.0095.

In the case of LAQFTSAICSVVRRA (modifications not checked), the binding affinity ratio (IC50 of standard peptide / IC50 of test peptide) in experiment [3] was 0.0065; in experiment [4], 0.0076; in [5], 0.001; in experiment [6], 0.028; in experiment [7], 0.028; in [8], -0.0009.

Regarding PLPIHTAELLAACFA (modifications not checked), the binding affinity ratio (IC50 of standard peptide / IC50 of test peptide) in [7] was -0.0003; in experiment [9], 0.0046.

Regarding LLVLQAGFF (modifications not checked) [HBV ENV 175 peptide …], in the experiment with HLA-A*0301 (human), the binding affinity ratio (IC50 of standard peptide / IC50 of test peptide) was 0.0006.

Take YVPSALNPA (modifications not checked) [HBV POL 768 peptide …]: the binding affinity ratio (IC50 of standard peptide / IC50 of test peptide) in the experiment with HLA-A*0201 (human) [10] was 0.0039.

Turning to LDTASALYR (modifications not checked) [HBV NUC 60 peptide …], the binding affinity ratio (IC50 of standard peptide / IC50 of test peptide) in the experiment with HLA-A*1101 (human) [1] was -0.0002.

Turning to LLGCAANWI (modifications not checked) [HBV POL 752 peptide …], in the experiment with HLA-A*0201 (human) [11], the binding affinity ratio (relative to standard peptide) is 0.0011.

On to LSFLPSDFF (modifications not checked) [HBV NUC 45 peptide …], for which, in the experiment with HLA-A*0301 (human), the binding affinity ratio (IC50 of standard peptide / IC50 of test peptide) is 0.0006.

For the molecule ASKLCLGWLWGMDID (modifications not checked), the binding affinity ratio (IC50 of standard peptide / IC50 of test peptide) in experiment [12] was -0.0002; in experiment [13], 0.001; in experiment [14] it was 0.0002.

With DSWWTSLNF (modifications not checked) [HBV ENV 207 … (peptide 20.0120)], in the experiment with HLA-A*0301 (human), the binding affinity ratio came out at 0.0006.

STLPETTVV (modifications not checked) [HBV NUC 141 peptide …]: the binding affinity ratio (IC50 of standard peptide / IC50 of test peptide) in the experiment with HLA-A*0201 (human) [11] stood at 0.0019.

For the molecule NAPILSTLPETTVVR (modifications not checked), the binding affinity ratio (IC50 of standard peptide / IC50 of test peptide) is -0.0002 in experiment [4], 0.0005 in experiment [7], 0.0009 in experiment [9] and -0.0007 in experiment [15].

As to LIFLLVLL (modifications not checked) [HBV ENV 254 peptide LIFLLVLL], the binding affinity ratio (relative to standard peptide) in the experiment with HLA-A*0201 (human) [11] is 0.0025.

Turning to IVGLLGFAAPFTQCG (modifications not checked), the binding affinity ratio (IC50 of standard peptide / IC50 of test peptide) in experiment [12] is -0.0002; in experiment [16], 0.0009; in experiment [14], 0.02; in [17], -0.0007.

For the molecule SLNFMGYVI (modifications not checked) [HBV POL 581 peptide …], the binding affinity ratio (IC50 of standard peptide / IC50 of test peptide) with HLA-A*0201 (human) [11] was determined as 0.0038.

With WPKFAVPNLQSLTNL (modifications not checked), the binding affinity ratio (IC50 of standard peptide / IC50 of test peptide) in experiment [18] is 0.0002; in experiment [19] it was 0.0008; in experiment [20], 0.0007.

For VPNLQSLTNL (modifications not checked) [HBV POL 398 peptide …], the binding affinity ratio (IC50 of standard peptide / IC50 of test peptide) with HLA-B*0702 (human) is 0.0006.

In experiment [21], MPKAGLLII (modifications not checked) [MAGE3 196] showed an IC50 of 940 nM.

With HLNPNKTKR (modifications not checked) [HBV POL 569 peptide …], the binding affinity ratio (IC50 of standard peptide / IC50 of test peptide) with HLA-A*0301 (human) came to 0.0025.

In the case of VGLLGFAAPFTQCGY (modifications not checked), the results for the binding affinity ratio (IC50 of standard peptide / IC50 of test peptide) in experiment [18], in [22] and in experiment [23] were -0.0004, -0.0001 and 0.0008, respectively.

For the molecule VGNFTGLYSSTVPVF (modifications not checked), the results for the binding affinity ratio (IC50 of standard peptide / IC50 of test peptide) in [24] and in experiment [19] (setting [25]) were 0.01 and 0.56, respectively.

Turning to RVTGGVFLV (modifications not checked) [HBV POL 357 peptide …], the binding affinity ratio (IC50 of standard peptide / IC50 of test peptide) with HLA-A*0201 (human) [11] (setting [25]) was found to be 0.0041.

As to WPKFAVPNL (modifications not checked) [HBV POL 393 peptide …], the results for the binding affinity ratio (IC50 of standard peptide / IC50 of test peptide) with HLA-B*5101 (human), with HLA-B*0702 (human) (setting [25]) and with HLA-B*5401 (human) were 0.0016, 0.0054 and 0.0015, respectively.

Consider DLNLGNLNVSIPWTH (modifications not checked), for which the binding affinity ratio (IC50 of standard peptide / IC50 of test peptide) in experiment [16] worked out at 0.001.

For the molecule LLDYQGML (modifications not checked) [HBV ENV 260 peptide LLDYQGML], the binding affinity ratio (relative to standard peptide) with HLA-A*0201 (human) [11] worked out at 0.0004.

In the case of AEDLNLGNLNVSIPW (modifications not checked), the binding affinity ratio (IC50 of standard peptide / IC50 of test peptide) in experiment [12] is -0.0002; in experiment [16], -0.0003; in [14], 0.0001; in [17], -0.0007.

For the molecule SVRFSWLSLL (modifications not checked) [HBV ENV 330 peptide …], in the experiment with HLA-A*0201 (human) [11], the binding affinity ratio (IC50 of standard peptide / IC50 of test peptide) worked out at 0.0004.

RDLLDTASALYREAL (modifications not checked): the binding affinity ratio (IC50 of standard peptide / IC50 of test peptide) amounted to 0.077 in experiment [19] (setting [25]) and 0.0001 in [20] (setting [25]).

Turning to QLLWFHISCL (modifications not checked) [HBV NUC 99 peptide … (peptide 1142.03)], the binding affinity ratio (IC50 of standard peptide / IC50 of test peptide) in the experiment with HLA-A*0201 (human) [11] worked out at 0.006.

As usually defined, the IC50 is the concentration that gives 50% inhibition.

The record behind these values is patent US7611713.
